Laboratory results taken from the RNAGym collection of RNA variant scans (doi:10.1073/pnas.2313332121).

B1: TPR t1 (parent)
chain: GACCAAUCUGCCCUCAGAGCUCGAGAACAUCUUCGGAUGCAGAGGAGGCAGGCUUCGGUGGCGCGAUAGCGCCAACGUCCUCAACCUCCAAUGCAUCCCACCACAUGAUGAUGCCUGAAGAGCCUUGGUUUUUUG

Variants of: B1
Assay: polymerase ribozyme fitness, log enrichment relative to wild type (log ratio); higher = more active; in vitro selection for triplet polymerase activity
How it was run: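 The heterodimeric triplet polymerase ribozyme's subunits were each mutagenized into PCR-built libraries and transcribed. Every library was selected once, in triplicate, by annealing with a biotinylated primer, the partner subunit and triplets, incubating frozen at −7 °C, gel-excising extended constructs, capturing on streptavidin beads and running RT-PCR. Input and output libraries were Illumina-sequenced, with genotypes kept only at ≥10 input reads and ≥1 read per output. Fitness, from inverse-variance-weighted replicate averages, is the base-2 logarithm of genotype enrichment over wild-type enrichment.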

Variant	polymerase ribozyme fitness (log ratio)
GACCAAUCUGCCCUCAGAGCUCGAGAACAUCUUCGGAUGCAGAGGAGGCAGGCUUCGGUGGCGCGAUAGUACCAACGUCCUCAACCUCCAAUGCAUCCCACCACAUGAUGAUGCCUGAAGAGCCUUGGGUUUUUG [C70U G71A U129G]	-1.98
GACCAAUCUGCCCUCAGAGCUCGAGAACAUCUUCGGAUGCAGAGGAGGCAGGCUUCGGUGGCGCGAUAGUGCCAACGUCCUCAACCUCCAAUGCAUCCCACCACAUGAUGAUGCCUGAAGAGCGUUGGUUUUUUG [C70U C124G]	0.921
GACCAAUCUGCCCUCAGAGCUCGAGAACAUCUUCGGAUGCAGAGGAGGCAGGCUUCGGUGGCGCGAUAGUGCCAACGUCCCCAACCUCCAAUGCACCCCACCACAUGAUGAUGCCUGAAGAGCCUUGGUUUUUUG [C70U U81C U96C]	-1.2
GACCAAUCUGCCCUCAGAGCUCGAGAACAUCUUCGGAUGCAGAGGAGGCAGGCUUCGGUGGCGCGAUAGUGCCAACGUCCUCAACCUCCAAUGCAUCCCACCACAUGAUGAUGCCUGAAGAGCCAUGGUUUUUUG [C70U U125A]	-1.31
GACCAAUCUGCCCUCAGAGCUCGAGAACAUCUUCGGAUGCAGAGGAGGCAGGCUUCGGUGGCGCGAUAGUGCCAACGGCCUCAACCUCCAAUGCAUCCCACCACAUGAUGAUGCCUGAAGAGCCUUGGUUUUUUG [C70U U78G]	-0.747
GACCAAUCUGCCCUCAGAGCUCGAGAACAUCUUCGGAUGCAGAGGAGGCAGGCUUCGGUGGCGCGAUAGUGCCAACGCCCUCAACCUCCAAUGCAUCCCACCACAUGAUGAUGCCUGAAGAGCCUUGGUUUUUUG [C70U U78C]	-1.4
GACCAAUCUGCCCUCAGAGCUCGAGAACAUCUUCGGAUGCAGAGGAGGCAGGCUUCGGUGGCGCGAUAGCACCAACGUCCUCAACCUCCAAUGCAUCCCACCACAUGAUGAUGGCUGAAGAGCCUUGGUUUUUUG [G71A C114G]	-3.49
GACCAAUCUGCCCUCAGAGCUCGAGAACAUCUUCGGAUGCAGAGGAGGCAGGCUUCGGUGGCGCGAUAGUGCCAACGUCCUCAACCUCCAAUGCAUCCCACCACAUGAUGAUGCCUGAAUAGCCUUGGUUUUUUG [C70U G120U]	0.0972
GACCAAUCUGCCCUCAGAGCUCGAGAACAUCUUCGGAUGCAGAGGAGGCAGGCUUCGGUGGCGCGAUAGCACCAACGUCCUCAACCUCCAAUGCAUCCCACCACAUGAUGAUCCCUGAAGAGCCUUGGUUUUUUG [G71A G113C]	-2.6
GACCAAUCUGCCCUCAGAGCUCGAGAACAUCUUCGGAUGCAGAGGAGGCAGGCUUCGGUGGCGCGAUAGCACCAACGUCCUCAACCUCCAAUGCAUCUCAACACAUGAUGAUGCCUGAAGAGCCUUGGUUUUUUG [G71A C98U C101A]	-3.15
GACCAAUCUGCCCUCAGAGCUCGAGAACAUCUUCGGAUGCAGAGGAGGCAGGCUUCGGUGGCGCGAUAGCACCAACGUCCUCAACCUCCAAUGCAUCCCACCACAUGAUAAUGCCUGAAGAGCCUUGGUUUUUUG [G71A G110A]	-2.14
GACCAAUCUGCCCUCAGAGCUCGAGAACAUCUUCGGAUGCAGAGGAGGCAGGCUUCGGUGGCGCGAUAGUGCCAACGCCCUCAACCUCCAAUGCAUCCCACCACAUGAUGAUGCCUGAAGAGCCUUGGAUUUUUG [C70U U78C U129A]	-1.77
GACCAAUCUGCCCUCAGAGCUCGAGAACAUCUUCGGAUGCAGAGGAGGCAGGCUUCGGUGGCGCGAUAGUGCCAACGCCCUCAACCUCCAAUGCAUCCCACCACAUGAUGAUGCCUGAAGAGCCUUGGGUUUUUG [C70U U78C U129G]	-1.5
GACCAAUCUGCCCUCAGAGCUCGAGAACAUCUUCGGAUGCAGAGGAGGCAGGCUUCGGUGGCGCGAUAGUGCCAACGUCCUCAACCUCCAAUGCAUCCCACCACAUGAUUAUGCCUGAAGAGCCUUGGUUUUUUG [C70U G110U]	-2.59
GACCAAUCUGCCCUCAGAGCUCGAGAACAUCUUCGGAUGCAGAGGAGGCAGGCUUCGGUGGCGCGAUAGCACCAACGUCCUCAACCGCCAAUGCAUCCCACCCCACGAUGAUGCCUGAAGAGCGUUGGUUUUUUG [G71A U87G A103C U106C C124G]	-3.7
GACCAAUCUGCCCUCAGAGCUCGAGAACAUCUUCGGAUGCAGAGGAGGCAGGCUUCGGUGGCGCGAUAGCACCAACGUCCUCAACCUCCAAUGCAUCCCACCACAUGAUGAUGCCUGAAAAGCCUUGGUUUUUUG [G71A G120A]	-0.000691
GACCAAUCUGCCCUCAGAGCUCGAGAACAUCUUCGGAUGCAGAGGAGGCAGGCUUCGGUGGCGCGAUAGCACCAACGUCCUCAACCUCCAAUGCAUCCCACCACAUGAUAAUGCUUGAAGAGCCUUGGUUUUUUG [G71A G110A C115U]	-5.43
GACCAAUCUGCCCUCAGAGCUCGAGAACAUCUUCGGAUGCAGAGGAGGCAGGCUUCGGUGGCGCGAUAGUGCCAACGUCCUCAACCUCCAAUGCAUCCCACCACAUGAUGAUGCAUGAAGAGCCUUGGUUUUUUG [C70U C115A]	0.108
GACCAAUCUGCCCUCAGAGCUCGAGAACAUCUUCGGAUGCAGAGGAGGCAGGCUUCGGUGGCGCGAUAGUGCCAACGUCCUCAACCUCCAAUGCAUCCCACCACAUGAUGAUGCGUGAAGAGCCUUGGUUUUUUG [C70U C115G]	-2.23
GACCAAUCUGCCCUCAGAGCUCGAGAACAUCUUCGGAUGCAGAGGAGGCAGGCUUCGGUGGCGCGAUAGUGCCAACGUCCUCAACCUCCAAUGCAUCCCACCACAUGAUGAUGCCUGAAGAGCCUUGCUUUUUUG [C70U G128C]	-2.54
GACCAAUCUGCCCUCAGAGCUCGAGAACAUCUUCGGAUGCAGAGGAGGCAGGCUUCGGUGGCGCGAUAGUGCCAACGUCCUCAACCUCCAAUGCAUCCCACCACAUGAUGAUGCCUGAAGAGCCUUGGUUUUUUU [C70U G135U]	-1.13
